Laboratory results published in patent US20250243290A1.
Values joined by “and” are separate entries in the source; they are usually repeats but may differ in a detail not shown here. Identical values can stand only once.

How the values were obtained:
VPE2LSCGSR2…2 = test: peptide-array ELISA
…2…2RP = test: peptide-array ELISA
S2…2RPG = test: peptide-array ELISA
…2RP = test: peptide-array ELISA
VPE2LS2…2RP = test: peptide-array ELISA
LWNWVPE2…2 = test: peptide-array ELISA
WNWVPE2…2 = test: peptide-array ELISA
S2…2RP = test: peptide-array ELISA
2LS2…2RPGW = test: peptide-array ELISA
LWNWVPE2…2T = test: peptide-array ELISA
PE2LS2…2RP = test: peptide-array ELISA
[1] = molecular target: QEGCRL2…; test: peptide-array ELISA
Sequence of QEGCRL2… (peptide, as listed by the source): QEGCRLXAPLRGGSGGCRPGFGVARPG

E2LS2…2RP = test: peptide-array ELISA
[2] = molecular target: CEQNRI2T2RPGWY2…2TSTSPTRC; test: peptide-array ELISA
2…2RP = test: peptide-array ELISA
[3] = molecular target: LWNWVPE2…; test: peptide-array ELISA
2…2RPG = test: peptide-array ELISA
LS2…2RPG = test: peptide-array ELISA
VPE2LS2…2TREQNRIC = test: peptide-array ELISA
QNRI2…2R = test: peptide-array ELISA [Con't]
[4] = molecular target: …2AGGSGGL2…; test: peptide-array ELISA [Con't]
[5] = molecular target: Y2…; test: peptide-array ELISA [Con't]
Sequence of Y2… (peptide, as listed by the source): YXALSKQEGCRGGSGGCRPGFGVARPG

…2RPGW = test: peptide-array ELISA [Con't]
2LSCGSR2…2 = test: peptide-array ELISA [Con't]
E2LS2…2RPGW = test: peptide-array ELISA [Con't]
2RLCAPLRK2…2APGTFSN = test: peptide-array ELISA [Con't]
LSCGSR2…2T2 = test: peptide-array ELISA [Con't]
[6] = molecular target: Y2…2…; test: peptide-array ELISA [Con't]
LS2…2TREQNRIC = test: peptide-array ELISA [Con't]
…2…2RPGW = test: peptide-array ELISA [Con't]
LCAPLRK2…2APGTFSN = test: peptide-array ELISA [Con't]
PE2LS2…2RPG = test: peptide-array ELISA [Con't]
CQA2TREQNRI2T2…2TSTSPTRC = test: peptide-array ELISA [Con't]
…2…2TSTSPTRC = test: peptide-array ELISA [Con't]
WNWVPE2…2T2 = test: peptide-array ELISA [Con't]
LSCGSR2…2 = test: peptide-array ELISA [Con't]
LSKQEG2…2APGTFSN = test: peptide-array ELISA [Con't]
NRI2…2R = test: peptide-array ELISA [Con't]
[7] = molecular target: DVV2…; test: peptide-array ELISA [Con't]
…2RPG = test: peptide-array ELISA [Con't]
Sequence of …2RPG (peptide, as listed by the source): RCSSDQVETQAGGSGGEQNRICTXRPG

[8] = molecular target: LWNWVPE2…; test: peptide-array ELISA [Con't]
PE2LSCGSR2…2T = test: peptide-array ELISA [Con't]
CAPLRK2…2RLC = test: peptide-array ELISA [Con't]
[9] = molecular target: …2GGSGGL2…; test: peptide-array ELISA [Con't]
[10] = molecular target: E2LS2…2…; test: peptide-array ELISA [Con't]
CDQVETQA2…2TSTSPTRC = test: peptide-array ELISA [Con't]
CG2RL2APLRK2…2RLC = test: peptide-array ELISA [Con't]
[11] = molecular target: CG2RL2APLRK2RPGFCQA2TREQNRI2T2RPC; test: peptide-array ELISA [Con't]
E2LSCGSR2…2T = test: peptide-array ELISA [Con't]
NWVPE2…2 = test: peptide-array ELISA [Con't]
[12] = molecular target: WY2…; test: peptide-array ELISA [Con't]
Sequence of WY2… (peptide, as listed by the source): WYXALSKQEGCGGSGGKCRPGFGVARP

E2LSCGSR2…2 = test: peptide-array ELISA [Con't]
[13] = molecular target: NWVPE2…; test: peptide-array ELISA [Con't]
Sequence of NWVPE2… (peptide, as listed by the source): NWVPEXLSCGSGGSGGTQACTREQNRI

C2…22SK2SPGQHC = test: peptide-array ELISA [Con't]
…2…2R = test: peptide-array ELISA [Con't]
PE2LS2…2…2 = test: peptide-array ELISA [Con't]
[14] = molecular target: EGCRL2…; test: peptide-array ELISA [Con't]
Sequence of EGCRL2… (peptide, as listed by the source): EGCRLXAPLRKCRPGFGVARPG

agonistic TNFR2 antibody MR2-1
Raw luminescence data (VPE2LSCGSR2…2): 365 | Raw luminescence data (…2…2RP): 459 | Raw luminescence data (S2…2RPG): 385 | Raw luminescence data (…2RP): 435 and 433 | Raw luminescence data (VPE2LS2…2RP): 410 | Raw luminescence data (LWNWVPE2…2): 525 | Raw luminescence data (WNWVPE2…2): 403 | Raw luminescence data (S2…2RP): 392 | Raw luminescence data (2LS2…2RPGW): 366 | Raw luminescence data (LWNWVPE2…2T): 467 | Raw luminescence data (PE2LS2…2RP): 483 | Raw luminescence data [1]: 428 | Raw luminescence data (E2LS2…2RP): 418 | Raw luminescence data [2]: 413 | Raw luminescence data (2…2RP): 510 | Raw luminescence data [3]: 400 | Raw luminescence data (2…2RPG): 389 | Raw luminescence data (LS2…2RPG): 433 | Raw luminescence data (VPE2LS2…2TREQNRIC): 399 | Raw luminescence data (QNRI2…2R): 242 | Raw luminescence data [4]: 254 | Raw luminescence data [5]: 256 | Raw luminescence data (…2RPGW): 276 and 272 | Raw luminescence data (2LSCGSR2…2): 251 | Raw luminescence data (E2LS2…2RPGW): 233 | Raw luminescence data (2RLCAPLRK2…2APGTFSN): 245 | Raw luminescence data (LSCGSR2…2T2): 226 | Raw luminescence data [6]: 245 | Raw luminescence data (LS2…2TREQNRIC): 232 | Raw luminescence data (…2…2RPGW): 270 | Raw luminescence data (LCAPLRK2…2APGTFSN): 262 | Raw luminescence data (PE2LS2…2RPG): 277 | Raw luminescence data (CQA2TREQNRI2T2…2TSTSPTRC): 274 | Raw luminescence data (…2…2TSTSPTRC): 267 | Raw luminescence data (WNWVPE2…2T2): 247 | Raw luminescence data (LSCGSR2…2): 274 | Raw luminescence data (LSKQEG2…2APGTFSN): 247 | Raw luminescence data (NRI2…2R): 229 | Raw luminescence data [7]: 243 | Raw luminescence data (…2RPG): 257 | Raw luminescence data [8]: 260 | Raw luminescence data (PE2LSCGSR2…2T): 275 | Raw luminescence data (CAPLRK2…2RLC): 227 | Raw luminescence data [9]: 250 | Raw luminescence data [10]: 233 | Raw luminescence data (CDQVETQA2…2TSTSPTRC): 251 | Raw luminescence data (CG2RL2APLRK2…2RLC): 252 | Raw luminescence data [11]: 244 | Raw luminescence data (E2LSCGSR2…2T): 225 | Raw luminescence data (NWVPE2…2): 258 | Raw luminescence data [12]: 254 | Raw luminescence data (E2LSCGSR2…2): 262 | Raw luminescence data [13]: 229 | Raw luminescence data (C2…22SK2SPGQHC): 263 | Raw luminescence data (…2…2R): 225 | Raw luminescence data (PE2LS2…2…2): 262 | Raw luminescence data [14]: 239
